# Laboratory results: IntAct's records for PubMed 15479639
# B1: Chaperone ric-8 (Caenorhabditis elegans), Q9GSX9-1 (parent)
# chain: MSEELHSDLIASIFGGKPAKIEEFFSKWNFANAAVSKFDMANSAKNELGDRICEVIENGELTHVLLETIKILSREKDGLEGLLNDPLCDKILAFAELSSNENNSKTVHTLMEAQKCLINTLFHSQRMRDRFYANPKTGENLQFFLGEFEENRRKTSSIDWIRLLNPVQAAEIWYFYHRIAFIATALGREFQKNWANDPKTIDSLLLAVEICTNRSENSTQDINRATEALKTFFNVFCHFHGDVKAIDHKNAAKTCQILRDAICSDVLTDDVVQSAIHCLSVPPLPMVLSVLCGKNSKNNGGENEEEKFFVEELSNMQLTEAILMHLDKQLTKVVALLLNDAPNQQQNPMLSAEASTLTDLVGPYFQVLARLCTDSKYVRRYCRIRVIPPLVSEEVQKRPEENNTLRGRIARIMMLPSSTKDVAAEFLFIICKRSVNRMIKYLGFGHSAGHLANLGLLGQINQPKHASDSEDSETEDYNQIKDSVNPVTGAIYPSDHGSALAGMSEEQKEYEAMKLVDAMNQMMETGIVKPGTIGDDGKIREVSHVLELLKNAPEPAPAENSDSDEE
# Variants of: B1
# Details: with gnao_caeel goa-1, P51875
# gnao_caeel goa-1, P51875, sequence (P51875 whole entry): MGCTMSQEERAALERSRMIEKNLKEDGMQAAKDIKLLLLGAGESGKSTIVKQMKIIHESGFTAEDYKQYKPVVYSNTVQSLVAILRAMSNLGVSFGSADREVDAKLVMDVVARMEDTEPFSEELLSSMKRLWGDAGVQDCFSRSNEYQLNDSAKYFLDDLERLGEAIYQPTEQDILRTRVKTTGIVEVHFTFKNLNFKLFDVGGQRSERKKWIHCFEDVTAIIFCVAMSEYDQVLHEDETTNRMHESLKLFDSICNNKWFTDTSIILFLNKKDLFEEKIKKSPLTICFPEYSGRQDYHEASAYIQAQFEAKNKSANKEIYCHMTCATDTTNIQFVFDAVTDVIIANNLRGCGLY
row,Variant,effect of a mutation on the interaction
1,MSEELHSDLIASIFGGKPAKIEEFFSKWNFANAAVSKFDMANSAKNELGDRICEVIENGELTHVLLETIKILSREKDGLEGLLNDPLCDKILAFAELSSNENNSKTVHTLMEAQKCLINTLFHSQRMRDRFYANPKTGENLQFFLGEFEENRRKTSSIDWIRLLNPVQAAEIWYFYHRIAFIATALGREFQKNWANDPKTIDSLLLAVEICTNRSENSTQDINRATEALKTFFNVFCHFHGDVKAIDHKNAAKTCQILRDAICSDVFTDDVVQSAIHCLSVPPLPMVLSVLCGKNSKNNGGENEEEKFFVEELSNMQLTEAILMHLDKQLTKVVALLLNDAPNQQQNPMLSAEASTLTDLVGPYFQVLARLCTDSKYVRRYCRIRVIPPLVSEEVQKRPEENNTLRGRIARIMMLPSSTKDVAAEFLFIICKRSVNRMIKYLGFGHSAGHLANLGLLGQINQPKHASDSEDSETEDYNQIKDSVNPVTGAIYPSDHGSALAGMSEEQKEYEAMKLVDAMNQMMETGIVKPGTIGDDGKIREVSHVLELLKNAPEPAPAENSDSDEE [L267F],increasing interaction
2,MSEELHSDLIASIFGGKPAKIEEFFSKWNFANAAVSKFDMANSAKNELGDRICEVIENGELTHVLLETIKILSREKDGLEGLLNDPLCDKILAFAELSSNENNSKTVHTLMEAQKCLINTLFHSQRMRDRFYANPKTGENLQFFLGEFEENRRKTSSIDWIRLLNPVQAAEIWYFYHRIAFIATALGREFQKNWANDPKTIDSLLLAVEICTNRSENSTQDINRATEALKTFFNVFCHFHGDVKAIDHKNAAKTCQILRDAICSDVLTDDVVQSEIHCLSVPPLPMVLSVLCGKNSKNNGGENEEEKFFVEELSNMQLTEAILMHLDKQLTKVVALLLNDAPNQQQNPMLSAEASTLTDLVGPYFQVLARLCTDSKYVRRYCRIRVIPPLVSEEVQKRPEENNTLRGRIARIMMLPSSTKDVAAEFLFIICKRSVNRMIKYLGFGHSAGHLANLGLLGQINQPKHASDSEDSETEDYNQIKDSVNPVTGAIYPSDHGSALAGMSEEQKEYEAMKLVDAMNQMMETGIVKPGTIGDDGKIREVSHVLELLKNAPEPAPAENSDSDEE [A275E],decreasing interaction
